From PMC4820223

Tests used:
[1] = target: UbL-mCherry-FRB-MBP proteasome adaptor
[2] = target: UbL-mCherry-GAI(1-92) proteasome adaptor (UniProt Q9LQT8)

Row | depletion of the GFP target (GFP fluorescence by flow cytometry) in HEK293 cells after 4 h with 1, 2 or 5 uM rapalog; dimerisation bridged by rapalog [1] [%] | depletion of the GFP target (GFP fluorescence by flow cytometry) in HEK293 cells after 24 h with 10 to 50 uM and higher GA3-AM; dimerisation bridged by gibberellin GA3 [2] [%] | Substance
1 | 90 | – | FKBP-GFP-tail target protein
2 | – | 80 | GID1-GFP-tail target protein
